Earlier results on three substances are cited in patent US20240293585A1, “HIGH MOLECULAR WEIGHT ZWITTERION-CONTAINING POLYMERS” (Kodiak Sciences Inc., priority 0001, published 2024).

For the substance “Cimzia: Fab′ against TNFa conjugated with a 40 kDa branched polymer [reference compound]”, under “human, subcutaneous”, the “Human half life after subcutaneous injection” value is 13 days.
With “Mircera: PEGylated form of recombinant human erythropietin [reference compound]”, for the setting “chronic renal disease patients, subcutaneous”, the “in vivo half life after subcutaneous injection” value is “approximately 140 hours”.
As for “rhEPO: 30.4 kDa protein with 165 amino acids; native form of human erythropoietin with 3 N-linked chains”, the “mean terminal half life after intravenous injection” value (human, intravenous) is 7 h. Moreover, where the note is “human, subcutaneous”, the “mean terminal half life after subcutaneous injection” value is 16 h.
